{"source": "paper PMC5524880", "about": "“Mechanisms and Specificity of Phenazine Biosynthesis Protein PhzF” (Scientific Reports, 2017)", "proteins": {"B1": {"name": "PhzF (Pseudomonas fluorescens) (protein)", "chain": "MHNYVIIDAFASVPLEGNPVAVFFDADDLPPAQMQRIAREMNLSESTFVLKPRNGGDALIRIFTPVNELPFAGHPLLGTAIALGAHTDNHRLYLETQMGTIAFELERQNGSVIAASMDQPIPTWTALGRDAELLKALGISDSTFPIEIYHNGPRHVFVGLPSIDALSALHPDHRALSNFHDMAINCFAGAGRRWRSRMFSPAYGVVEDAATGSAAGPLAIHLARHGQIEFGQPVEILQGVEIGRPSLMFAKAEGRAEQLTRVEVSGNGVTFGRGTIVL", "notes": "N-terminal His6 tag, expressed in E. coli, homodimer"}}, "key": {"purified protein [1]": {"substrate": "N[C@H]1C(C(=O)O)=CC=C[C@@H]1O", "test": "purified protein", "type": "biochemical, Pseudomonas fluorescens", "settings": "50 mM sodium phosphate pH 7.5, 1% DMSO, 25 °C"}, "purified protein [2]": {"substrate": "CCOC1C=CC=C(C(=O)O)C1N", "test": "purified protein", "type": "biochemical, Pseudomonas fluorescens", "settings": "50 mM sodium phosphate pH 7.5, 1% DMSO, 25 °C, 1000 nM PhzF, racemic substrate"}, "[3]": {"settings": "200 nM PhzF, labelled compound (deuterated at C3)"}}, "data": [{"protein": "B1", "values": [{"measurement": "Km", "setting": "purified protein [1]; 40 nM PhzF dimer", "result": "517 ± 57", "unit": "µM"}, {"measurement": "kcat", "setting": "purified protein [1]; 40 nM PhzF dimer", "result": "3.23 ± 0.19", "unit": "s⁻¹"}, {"measurement": "Km", "setting": "purified protein [1]; [3]", "result": "311 ± 14", "unit": "µM"}, {"measurement": "kcat", "setting": "purified protein [1]; [3]", "result": "0.34 ± 0.01", "unit": "s⁻¹"}, {"measurement": "Km", "setting": "purified protein [2]", "result": "1842 ± 355", "unit": "µM"}, {"measurement": "kcat", "setting": "purified protein [2]", "result": "0.12 ± 0.02", "unit": "s⁻¹"}]}]}
